# Positions count from the first letter of the chain named.
# B1: COVID-19 therapeutic protein CTP-α1 (designed binder)
# chain: MKSELASNVYNTNITKENVQNMNEEQAKTFLDKFNHEAEDLFYQSSGLGKGDFR
# B2: COVID-19 therapeutic protein CTP-α2 (designed binder)
# chain: B1 chain with E4D
# B3: COVID-19 therapeutic protein CTP-α3 (designed binder)
# chain: B1 chain with E4Q, S7E
# B4: COVID-19 therapeutic protein CTP-β1 (designed binder)
# chain: B1 chain with N8V, V9N, N21A, M22N, N23G
# B5: COVID-19 therapeutic protein CTP-β2 (designed binder)
# chain: B1 chain with K2E, N8V, V9N, N21A, M22N, N23G
# B6: COVID-19 therapeutic protein CTP-β3 (designed binder)
# chain: B1 chain with K2E
# B7: COVID-19 therapeutic protein CTP-γ1 (designed binder)
# chain: MKASSLADNVYNTNITKENVQNMNEEQAKTFLDKFNHEAEDLFYQSSGLGKGDFR
# B8: COVID-19 therapeutic protein CTP-γ2 (designed binder)
# chain: B7 chain with A3E
# B9: COVID-19 therapeutic protein CTP-γ3 (designed binder)
# chain: B7 chain with S5E
# Target: SARS-CoV2 spike protein S1 receptor binding domain (RBD) (SARS-CoV2, UniProt P0DTC2 319-541)
row,Binder,Kd [nM]
1,B1,37.8
2,B2,50.4
3,B3,35.7
4,B4,82
5,B5,42.9
6,B6,56.4
7,B7,47.5
8,B8,42.8
9,B9,39.2
10,GEFADKLKNELAKTEEQAKTFLDKFNHEAEDLFYQSSGLGKGDFR (designed binder) [COVID-19 therapeutic protein CTP-δ1],56.3
